Reference: patent US20160272683A1 (Novo Nordisk, published 2016)
Numbered stars: 1 amine (or outer) side, 2 acyl side, 3 side chain; on linkers, the order of the positions; unused ones are H or OH. * marks the point of attachment. C18 diacid = O=C(O)CCCCCCCCCCCCCCCCC(=O)*; C16 diacid = O=C(O)CCCCCCCCCCCCCCC(=O)*; γGlu = O=C(O)[C@H](CCC(=O)[*:2])N[*:1]; C14 diacid = O=C(O)CCCCCCCCCCCCC(=O)*; C12 diacid = O=C(O)CCCCCCCCCCC(=O)*; Palmitoyl = CCCCCCCCCCCCCCCC(=O)*; AEEA = NCCOCCOCC(=O)O

T1: human amylin receptor (human calcitonin receptor + human RAMP3) (human) (UniProt P30988)
T1 sequence (looked up) 1: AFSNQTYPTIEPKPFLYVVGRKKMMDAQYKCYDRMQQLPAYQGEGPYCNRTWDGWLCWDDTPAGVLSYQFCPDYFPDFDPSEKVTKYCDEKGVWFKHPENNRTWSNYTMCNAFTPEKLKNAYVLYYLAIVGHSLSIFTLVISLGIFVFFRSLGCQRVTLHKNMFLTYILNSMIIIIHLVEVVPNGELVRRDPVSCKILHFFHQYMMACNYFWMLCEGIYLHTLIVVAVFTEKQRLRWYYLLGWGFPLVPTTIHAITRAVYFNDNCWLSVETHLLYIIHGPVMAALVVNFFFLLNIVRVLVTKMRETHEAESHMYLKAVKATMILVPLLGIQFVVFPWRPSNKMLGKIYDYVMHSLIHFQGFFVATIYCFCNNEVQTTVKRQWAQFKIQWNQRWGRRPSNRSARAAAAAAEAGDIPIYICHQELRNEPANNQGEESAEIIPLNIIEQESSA
T1 sequence (looked up) 2: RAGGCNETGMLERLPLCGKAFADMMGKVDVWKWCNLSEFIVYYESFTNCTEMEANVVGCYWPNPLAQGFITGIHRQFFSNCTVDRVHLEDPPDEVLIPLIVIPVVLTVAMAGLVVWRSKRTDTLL

B1: [N-terminal(C18 diacid), 20I]mimylin (peptide)
peptide: {C18 diacid}-EASELSTAALGRLSAELHEIATLPRTETGPESP-NH2
SMILES: CC[C@H](C)[C@H](NC(=O)[C@H](CCC(=O)O)NC(=O)[C@H](Cc1c[nH]cn1)NC(=O)[C@H](CC(C)C)NC(=O)[C@H](CCC(=O)O)NC(=O)[C@H](C)NC(=O)[C@H](CO)NC(=O)[C@H](CC(C)C)NC(=O)[C@H](CCCNC(=N)N)NC(=O)CNC(=O)[C@H](CC(C)C)NC(=O)[C@H](C)NC(=O)[C@H](C)NC(=O)[C@@H](NC(=O)[C@H](CO)NC(=O)[C@H](CC(C)C)NC(=O)[C@H](CCC(=O)O)NC(=O)[C@H](CO)NC(=O)[C@H](C)NC(=O)[C@H](CCC(=O)O)NC(=O)CCCCCCCCCCCCCCCCC(=O)O)[C@@H](C)O)C(=O)N[C@@H](C)C(=O)N[C@H](C(=O)N[C@@H](CC(C)C)C(=O)N1CCC[C@H]1C(=O)N[C@@H](CCCNC(=N)N)C(=O)N[C@H](C(=O)N[C@@H](CCC(=O)O)C(=O)N[C@H](C(=O)NCC(=O)N1CCC[C@H]1C(=O)N[C@@H](CCC(=O)O)C(=O)N[C@@H](CO)C(=O)N1CCC[C@H]1C(N)=O)[C@@H](C)O)[C@@H](C)O)[C@@H](C)O
B2: [N-terminal(C18 diacid), 9V]mimylin (peptide)
peptide: {C18 diacid}-EASELSTAVLGRLSAELHELATLPRTETGPESP-NH2
SMILES: CC(C)C[C@H](NC(=O)[C@H](CCC(=O)O)NC(=O)[C@H](Cc1c[nH]cn1)NC(=O)[C@H](CC(C)C)NC(=O)[C@H](CCC(=O)O)NC(=O)[C@H](C)NC(=O)[C@H](CO)NC(=O)[C@H](CC(C)C)NC(=O)[C@H](CCCNC(=N)N)NC(=O)CNC(=O)[C@H](CC(C)C)NC(=O)[C@@H](NC(=O)[C@H](C)NC(=O)[C@@H](NC(=O)[C@H](CO)NC(=O)[C@H](CC(C)C)NC(=O)[C@H](CCC(=O)O)NC(=O)[C@H](CO)NC(=O)[C@H](C)NC(=O)[C@H](CCC(=O)O)NC(=O)CCCCCCCCCCCCCCCCC(=O)O)[C@@H](C)O)C(C)C)C(=O)N[C@@H](C)C(=O)N[C@H](C(=O)N[C@@H](CC(C)C)C(=O)N1CCC[C@H]1C(=O)N[C@@H](CCCNC(=N)N)C(=O)N[C@H](C(=O)N[C@@H](CCC(=O)O)C(=O)N[C@H](C(=O)NCC(=O)N1CCC[C@H]1C(=O)N[C@@H](CCC(=O)O)C(=O)N[C@@H](CO)C(=O)N1CCC[C@H]1C(N)=O)[C@@H](C)O)[C@@H](C)O)[C@@H](C)O
B3: [N-terminal(C18 diacid), 5I]mimylin (peptide)
peptide: {C18 diacid}-EASEISTAALGRLSAELHELATLPRTETGPESP-NH2
SMILES: CC[C@H](C)[C@H](NC(=O)[C@H](CCC(=O)O)NC(=O)[C@H](CO)NC(=O)[C@H](C)NC(=O)[C@H](CCC(=O)O)NC(=O)CCCCCCCCCCCCCCCCC(=O)O)C(=O)N[C@@H](CO)C(=O)N[C@H](C(=O)N[C@@H](C)C(=O)N[C@@H](C)C(=O)N[C@@H](CC(C)C)C(=O)NCC(=O)N[C@@H](CCCNC(=N)N)C(=O)N[C@@H](CC(C)C)C(=O)N[C@@H](CO)C(=O)N[C@@H](C)C(=O)N[C@@H](CCC(=O)O)C(=O)N[C@@H](CC(C)C)C(=O)N[C@@H](Cc1c[nH]cn1)C(=O)N[C@@H](CCC(=O)O)C(=O)N[C@@H](CC(C)C)C(=O)N[C@@H](C)C(=O)N[C@H](C(=O)N[C@@H](CC(C)C)C(=O)N1CCC[C@H]1C(=O)N[C@@H](CCCNC(=N)N)C(=O)N[C@H](C(=O)N[C@@H](CCC(=O)O)C(=O)N[C@H](C(=O)NCC(=O)N1CCC[C@H]1C(=O)N[C@@H](CCC(=O)O)C(=O)N[C@@H](CO)C(=O)N1CCC[C@H]1C(N)=O)[C@@H](C)O)[C@@H](C)O)[C@@H](C)O)[C@@H](C)O
B4: [N-terminal(C18 diacid), 18A]mimylin (peptide)
peptide: {C18 diacid}-EASELSTAALGRLSAELAELATLPRTETGPESP-NH2
SMILES: CC(C)C[C@H](NC(=O)[C@H](C)NC(=O)[C@H](C)NC(=O)[C@@H](NC(=O)[C@H](CO)NC(=O)[C@H](CC(C)C)NC(=O)[C@H](CCC(=O)O)NC(=O)[C@H](CO)NC(=O)[C@H](C)NC(=O)[C@H](CCC(=O)O)NC(=O)CCCCCCCCCCCCCCCCC(=O)O)[C@@H](C)O)C(=O)NCC(=O)N[C@@H](CCCNC(=N)N)C(=O)N[C@@H](CC(C)C)C(=O)N[C@@H](CO)C(=O)N[C@@H](C)C(=O)N[C@@H](CCC(=O)O)C(=O)N[C@@H](CC(C)C)C(=O)N[C@@H](C)C(=O)N[C@@H](CCC(=O)O)C(=O)N[C@@H](CC(C)C)C(=O)N[C@@H](C)C(=O)N[C@H](C(=O)N[C@@H](CC(C)C)C(=O)N1CCC[C@H]1C(=O)N[C@@H](CCCNC(=N)N)C(=O)N[C@H](C(=O)N[C@@H](CCC(=O)O)C(=O)N[C@H](C(=O)NCC(=O)N1CCC[C@H]1C(=O)N[C@@H](CCC(=O)O)C(=O)N[C@@H](CO)C(=O)N1CCC[C@H]1C(N)=O)[C@@H](C)O)[C@@H](C)O)[C@@H](C)O
B5: [N-terminal(C18 diacid)]mimylin (peptide)
peptide: {C18 diacid}-EASELSTAALGRLSAELHELATLPRTETGPESP-NH2
SMILES: CC(C)C[C@H](NC(=O)[C@H](C)NC(=O)[C@H](C)NC(=O)[C@@H](NC(=O)[C@H](CO)NC(=O)[C@H](CC(C)C)NC(=O)[C@H](CCC(=O)O)NC(=O)[C@H](CO)NC(=O)[C@H](C)NC(=O)[C@H](CCC(=O)O)NC(=O)CCCCCCCCCCCCCCCCC(=O)O)[C@@H](C)O)C(=O)NCC(=O)N[C@@H](CCCNC(=N)N)C(=O)N[C@@H](CC(C)C)C(=O)N[C@@H](CO)C(=O)N[C@@H](C)C(=O)N[C@@H](CCC(=O)O)C(=O)N[C@@H](CC(C)C)C(=O)N[C@@H](Cc1c[nH]cn1)C(=O)N[C@@H](CCC(=O)O)C(=O)N[C@@H](CC(C)C)C(=O)N[C@@H](C)C(=O)N[C@H](C(=O)N[C@@H](CC(C)C)C(=O)N1CCC[C@H]1C(=O)N[C@@H](CCCNC(=N)N)C(=O)N[C@H](C(=O)N[C@@H](CCC(=O)O)C(=O)N[C@H](C(=O)NCC(=O)N1CCC[C@H]1C(=O)N[C@@H](CCC(=O)O)C(=O)N[C@@H](CO)C(=O)N1CCC[C@H]1C(N)=O)[C@@H](C)O)[C@@H](C)O)[C@@H](C)O
B6: [N-terminal(C18 diacid), 17I]mimylin (peptide)
peptide: {C18 diacid}-EASELSTAALGRLSAEIHELATLPRTETGPESP-NH2
SMILES: CC[C@H](C)[C@H](NC(=O)[C@H](CCC(=O)O)NC(=O)[C@H](C)NC(=O)[C@H](CO)NC(=O)[C@H](CC(C)C)NC(=O)[C@H](CCCNC(=N)N)NC(=O)CNC(=O)[C@H](CC(C)C)NC(=O)[C@H](C)NC(=O)[C@H](C)NC(=O)[C@@H](NC(=O)[C@H](CO)NC(=O)[C@H](CC(C)C)NC(=O)[C@H](CCC(=O)O)NC(=O)[C@H](CO)NC(=O)[C@H](C)NC(=O)[C@H](CCC(=O)O)NC(=O)CCCCCCCCCCCCCCCCC(=O)O)[C@@H](C)O)C(=O)N[C@@H](Cc1c[nH]cn1)C(=O)N[C@@H](CCC(=O)O)C(=O)N[C@@H](CC(C)C)C(=O)N[C@@H](C)C(=O)N[C@H](C(=O)N[C@@H](CC(C)C)C(=O)N1CCC[C@H]1C(=O)N[C@@H](CCCNC(=N)N)C(=O)N[C@H](C(=O)N[C@@H](CCC(=O)O)C(=O)N[C@H](C(=O)NCC(=O)N1CCC[C@H]1C(=O)N[C@@H](CCC(=O)O)C(=O)N[C@@H](CO)C(=O)N1CCC[C@H]1C(N)=O)[C@@H](C)O)[C@@H](C)O)[C@@H](C)O
B7: [N-terminal(C18 diacid), 9I]mimylin (peptide)
peptide: {C18 diacid}-EASELSTAILGRLSAELHELATLPRTETGPESP-NH2
SMILES: CC[C@H](C)[C@H](NC(=O)[C@H](C)NC(=O)[C@@H](NC(=O)[C@H](CO)NC(=O)[C@H](CC(C)C)NC(=O)[C@H](CCC(=O)O)NC(=O)[C@H](CO)NC(=O)[C@H](C)NC(=O)[C@H](CCC(=O)O)NC(=O)CCCCCCCCCCCCCCCCC(=O)O)[C@@H](C)O)C(=O)N[C@@H](CC(C)C)C(=O)NCC(=O)N[C@@H](CCCNC(=N)N)C(=O)N[C@@H](CC(C)C)C(=O)N[C@@H](CO)C(=O)N[C@@H](C)C(=O)N[C@@H](CCC(=O)O)C(=O)N[C@@H](CC(C)C)C(=O)N[C@@H](Cc1c[nH]cn1)C(=O)N[C@@H](CCC(=O)O)C(=O)N[C@@H](CC(C)C)C(=O)N[C@@H](C)C(=O)N[C@H](C(=O)N[C@@H](CC(C)C)C(=O)N1CCC[C@H]1C(=O)N[C@@H](CCCNC(=N)N)C(=O)N[C@H](C(=O)N[C@@H](CCC(=O)O)C(=O)N[C@H](C(=O)NCC(=O)N1CCC[C@H]1C(=O)N[C@@H](CCC(=O)O)C(=O)N[C@@H](CO)C(=O)N1CCC[C@H]1C(N)=O)[C@@H](C)O)[C@@H](C)O)[C@@H](C)O

Target: T1, human amylin receptor (human calcitonin receptor + human RAMP3) (human)
Assay: whole-cell competition vs 125I-rat amylin (Assay Va)

Binder	IC50 [pM]
B1	511
Palmitoyl-EASELSTAALGRLSAELHELATLPRTETGPESP-NH2 [[N-terminal(C16)]mimylin]	435
{C14 diacid}-EASELSTAALGRLSAELHELATLPRTETGPESP-NH2 [[N-terminal(C14 diacid)]mimylin]	1190
B2	796
B3	429
B4	329
B5	902
{C16 diacid}-EASELSTAALGRLSAELHELATLPRTETGPESP-NH2 [[N-terminal(C16 diacid)]mimylin]	498
B6	1480
{C14 diacid-γGlu-γGlu-AEEA-AEEA-AEEA-AEEA}-EASELSTAALGRLSAELHELATLPRTETGPESP-NH2 [[N-terminal(C14 diacid-2xgGlu-4xOEG)]mimylin]	8380
{C12 diacid}-EASELSTAALGRLSAELHELATLPRTETGPESP-NH2 [[N-terminal(C12 diacid)]mimylin]	8970
B7	417
